From patent US20090005298A1 (published 2009)
Each block holds one molecule with its values, some of them ahead of it.

Experiments:
[1] = molecular target: T1, Rat tail tendon type I collagen (rat, UniProt P02454 152-1207; P02466 86-1125); experiment: solid-phase collagen-binding assay, anti-His detection, one-site binding model
[2] = molecular target: T1, Rat tail tendon type I collagen; experiment: cell-based or functional assay

T1 sequence (P02454 152-1207 limits assumed, chain 1 of 2): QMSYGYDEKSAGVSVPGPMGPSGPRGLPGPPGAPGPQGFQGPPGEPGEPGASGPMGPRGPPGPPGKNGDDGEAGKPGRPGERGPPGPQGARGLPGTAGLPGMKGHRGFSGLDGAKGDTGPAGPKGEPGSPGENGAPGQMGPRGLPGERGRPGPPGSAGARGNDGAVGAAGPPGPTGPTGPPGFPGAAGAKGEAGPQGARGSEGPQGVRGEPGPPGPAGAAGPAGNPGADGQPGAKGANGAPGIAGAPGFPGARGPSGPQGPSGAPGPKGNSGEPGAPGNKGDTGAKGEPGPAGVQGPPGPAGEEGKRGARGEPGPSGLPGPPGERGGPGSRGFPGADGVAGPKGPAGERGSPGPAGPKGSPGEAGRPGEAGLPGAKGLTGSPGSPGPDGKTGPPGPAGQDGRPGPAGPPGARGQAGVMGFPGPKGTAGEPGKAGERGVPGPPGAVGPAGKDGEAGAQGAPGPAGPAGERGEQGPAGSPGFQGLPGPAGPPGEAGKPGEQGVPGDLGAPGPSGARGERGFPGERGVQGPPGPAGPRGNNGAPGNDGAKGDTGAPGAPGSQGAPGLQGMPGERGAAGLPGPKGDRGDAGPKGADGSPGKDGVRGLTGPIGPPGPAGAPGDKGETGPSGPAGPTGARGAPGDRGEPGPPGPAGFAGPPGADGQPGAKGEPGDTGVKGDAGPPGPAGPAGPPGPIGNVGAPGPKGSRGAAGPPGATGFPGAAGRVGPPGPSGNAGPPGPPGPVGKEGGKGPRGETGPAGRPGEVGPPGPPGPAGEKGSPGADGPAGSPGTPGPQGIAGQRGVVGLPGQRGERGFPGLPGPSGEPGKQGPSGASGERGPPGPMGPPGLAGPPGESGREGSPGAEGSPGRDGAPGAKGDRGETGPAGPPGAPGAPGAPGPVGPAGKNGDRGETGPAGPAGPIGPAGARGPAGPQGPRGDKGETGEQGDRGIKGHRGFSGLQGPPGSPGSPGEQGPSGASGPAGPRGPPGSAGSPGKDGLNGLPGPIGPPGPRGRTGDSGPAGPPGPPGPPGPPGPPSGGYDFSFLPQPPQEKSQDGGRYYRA
T1 sequence (P02466 86-1125 limits assumed, chain 2 of 2): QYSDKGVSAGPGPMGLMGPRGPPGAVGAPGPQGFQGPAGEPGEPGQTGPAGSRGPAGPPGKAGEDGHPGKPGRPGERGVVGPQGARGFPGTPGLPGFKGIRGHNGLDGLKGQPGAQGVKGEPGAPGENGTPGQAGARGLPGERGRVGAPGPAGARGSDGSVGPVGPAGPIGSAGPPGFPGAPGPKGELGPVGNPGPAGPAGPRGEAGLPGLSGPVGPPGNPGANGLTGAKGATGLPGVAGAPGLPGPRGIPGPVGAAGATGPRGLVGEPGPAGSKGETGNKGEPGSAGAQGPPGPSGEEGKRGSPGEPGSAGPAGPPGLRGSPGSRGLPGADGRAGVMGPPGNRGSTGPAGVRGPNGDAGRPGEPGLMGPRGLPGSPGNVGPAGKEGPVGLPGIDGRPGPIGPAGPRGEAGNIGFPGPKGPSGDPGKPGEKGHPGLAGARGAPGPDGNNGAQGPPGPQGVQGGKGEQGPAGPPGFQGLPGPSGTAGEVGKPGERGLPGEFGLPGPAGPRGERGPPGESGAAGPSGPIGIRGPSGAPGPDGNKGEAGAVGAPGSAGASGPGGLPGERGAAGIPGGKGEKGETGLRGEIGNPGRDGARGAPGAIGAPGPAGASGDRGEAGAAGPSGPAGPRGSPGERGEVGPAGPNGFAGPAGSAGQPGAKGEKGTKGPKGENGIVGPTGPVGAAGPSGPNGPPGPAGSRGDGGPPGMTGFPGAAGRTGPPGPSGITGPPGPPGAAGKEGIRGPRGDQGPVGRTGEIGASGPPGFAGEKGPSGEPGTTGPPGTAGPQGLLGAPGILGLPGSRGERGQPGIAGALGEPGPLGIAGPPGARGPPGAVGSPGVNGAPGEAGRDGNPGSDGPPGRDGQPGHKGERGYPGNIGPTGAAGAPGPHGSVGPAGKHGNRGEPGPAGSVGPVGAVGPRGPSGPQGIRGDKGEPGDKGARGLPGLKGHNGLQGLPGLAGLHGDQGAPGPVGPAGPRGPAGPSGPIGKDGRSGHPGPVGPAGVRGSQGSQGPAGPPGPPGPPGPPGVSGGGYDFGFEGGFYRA

Kd [1]: 4.04 nM
Molecule: rBSP(1-75) (from UniProt P13839 1-75) (peptide)

Kd [1]: 5.64 nM
Molecule: rBSP(1-100) (from UniProt P13839 1-100) (peptide)

Kd [1]: 50.3 nM
Molecule: rBSP(19-100) (from UniProt P13839 19-100) (peptide)

nucleating activity of rBSP in a collagen scaffold (hydroxyapatite nucleation) [2]: 0.025 nmol
Kd [1]: 22.9 nM
B1: Rat recombinant BSP (rBSP) (other)
chain: FSMKNFHRRIKAEDSEENGVFKYRPRYFLYKHATYFYPPLKRFPVQGGSDSSEENGDGDSSEEEGEEEETSNEEENNEDSEGNEDQEAEAENATLSGVTASYGVETTADAGKLELAALQLPKKAGDAEGKAPKMKESDEEEEEEEEEENENEEAEVDENEQVVNGTSTNSTEVDGGNGPSGGDNGEEAEEASVTEAGAEGTTAGVRELTSYGTTTAVLLNGFQQTTPPPEAYGTTSPPARKSSTVEYGEEYEQIGNEYNTAYETYDENNGEPRGDTYRAYEDEYSYYKGHGYEGYEGQDYYYHQ
modifications: biotinylated with Sulfo-NHS-Biotin where used as the labelled protein in competition assays
